One data set concerns the target T1, CsrA-Strep (Campylobacter jejuni NCTC11168) (UniProt Q0P9F1).
T1 sequence: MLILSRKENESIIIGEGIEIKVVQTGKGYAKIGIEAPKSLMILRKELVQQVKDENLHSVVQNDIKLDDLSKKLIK
Kind of data set: EMSA. (In general: Mobility shift assays separate free from complexed probe on a gel.)
On to “GGAAAUUAAAAUUUUAAAAAGGAAGUUAAAAUGUCAAAACCAUUAAAUGAAGAGAUUUUUGUUGAAUUUAAAAGUGAUCUAGCUGAAAGAAAAAAUGAAGUUUUGCUUCAAGUUUUAGA [Cj0040 mRNA]”, for which the binding result is given as “binds”.
The same measure, in the same setting: under “GGAUUAUAACUAAGAUCAAGGAGGCAGAAAUGAUCAAUCCUAUACAACAAAGUUAUGUGGCAAAUACCGCAUUAAAUACAAAUAGAAUAGAUAAAG [flgM mRNA]” stands “binds”.

A further data set concerns CsrA-Strep (Campylobacter jejuni NCTC11168). The data set is described as follows: EMSA.
For flaA WT leader, the Kd (usually the equilibrium constant for the complex coming apart) came to 50 nM.
Still for that read-out and setting: under flaB leader stands over 350 nM; under flaG leader, over 350 nM.
On the same count and under the same terms, under flgI leader stands over 350 nM.

The values above are taken from paper PMC4894983.
